Reference: patent US20130309177A1

Tests used:
[1] = target: gastrin-releasing peptide receptor on PC-3 cells (UniProt P30550); assay: competition with ^125I-BBN on PC-3 cells, repeat experiment (250 to 2 nM competitor)
[2] = target: somatostatin receptors on AR42J cells (rat); assay: apparent IC50; competition with ^111In-DTPA-octreotide on AR42J cells, 3 h at RT
Sequence of somatostatin receptors on AR42J cells (rat) (P30680 whole entry): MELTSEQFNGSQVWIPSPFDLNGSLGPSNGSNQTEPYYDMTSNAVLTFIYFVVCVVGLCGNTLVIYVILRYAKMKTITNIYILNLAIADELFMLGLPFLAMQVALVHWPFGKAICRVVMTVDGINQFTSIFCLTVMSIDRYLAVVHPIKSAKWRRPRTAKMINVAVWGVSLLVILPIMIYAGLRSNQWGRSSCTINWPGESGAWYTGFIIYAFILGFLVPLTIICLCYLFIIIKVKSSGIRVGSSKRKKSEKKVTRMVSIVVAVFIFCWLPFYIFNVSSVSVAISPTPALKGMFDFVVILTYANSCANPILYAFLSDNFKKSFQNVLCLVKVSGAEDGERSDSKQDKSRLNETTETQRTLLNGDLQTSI

Sequence of gastrin-releasing peptide receptor on PC-3 cells (P30550 whole entry): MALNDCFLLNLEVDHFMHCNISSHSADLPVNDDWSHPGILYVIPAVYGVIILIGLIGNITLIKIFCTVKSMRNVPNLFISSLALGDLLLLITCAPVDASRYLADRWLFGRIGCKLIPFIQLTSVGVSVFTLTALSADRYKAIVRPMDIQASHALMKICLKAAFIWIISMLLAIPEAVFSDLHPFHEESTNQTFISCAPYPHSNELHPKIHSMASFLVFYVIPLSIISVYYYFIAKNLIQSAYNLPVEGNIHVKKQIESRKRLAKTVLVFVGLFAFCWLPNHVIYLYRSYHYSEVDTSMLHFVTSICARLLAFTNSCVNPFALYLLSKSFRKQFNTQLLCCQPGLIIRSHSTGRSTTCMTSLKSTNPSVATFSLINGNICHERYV

Row | IC50 [1] | IC50 [2] | Substance
1 | 24.4 nM | – | commercially available BBN peptide
2 | – | 6.3 nM | ^115In-DTPA-octreotide (peptide)
3 | – | 3.6 nM | ^19F-IMP466 (Al^19F complex of IMP 466, NOTA-D-Phe-Cys-Phe-D-Trp-Lys-Thr-Cys-Throl) (peptide)
4 | – | 13 nM | ^69Ga-IMP466 (gallium complex of IMP 466) (peptide)
